These results are taken from publication PMC3257248, “Wnt4 Participates in the Formation of Vertebrate Neuromuscular Junction” (PLoS ONE, 2012).

The experiment deals with T1, MuSK (muscle specific kinase), full length (rat, UniProt Q62838 22-868).
T1 sequence (looked up): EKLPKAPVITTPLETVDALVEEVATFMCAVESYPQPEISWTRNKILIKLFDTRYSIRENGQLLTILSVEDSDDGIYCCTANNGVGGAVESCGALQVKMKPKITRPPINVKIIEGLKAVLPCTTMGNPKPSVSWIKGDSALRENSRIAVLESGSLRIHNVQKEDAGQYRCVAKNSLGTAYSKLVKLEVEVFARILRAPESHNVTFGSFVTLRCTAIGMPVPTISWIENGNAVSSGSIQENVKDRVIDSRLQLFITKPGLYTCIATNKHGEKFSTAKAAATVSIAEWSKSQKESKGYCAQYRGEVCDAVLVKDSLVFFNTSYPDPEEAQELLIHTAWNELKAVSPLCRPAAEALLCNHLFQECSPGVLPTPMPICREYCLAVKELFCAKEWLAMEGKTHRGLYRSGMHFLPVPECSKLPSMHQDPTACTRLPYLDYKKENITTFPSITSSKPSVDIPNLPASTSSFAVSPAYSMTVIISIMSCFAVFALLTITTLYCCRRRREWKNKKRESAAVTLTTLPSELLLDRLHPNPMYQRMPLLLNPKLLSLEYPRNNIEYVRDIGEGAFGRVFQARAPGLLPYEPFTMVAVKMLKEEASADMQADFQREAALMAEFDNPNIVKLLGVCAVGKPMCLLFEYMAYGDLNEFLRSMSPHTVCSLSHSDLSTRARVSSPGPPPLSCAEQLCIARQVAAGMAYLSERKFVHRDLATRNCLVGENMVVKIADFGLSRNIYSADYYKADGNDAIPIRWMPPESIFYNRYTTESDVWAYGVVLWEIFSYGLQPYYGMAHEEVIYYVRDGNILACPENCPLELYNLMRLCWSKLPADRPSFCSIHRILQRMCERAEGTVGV
In words: cell-based or functional assay.

B1: HA-tagged Wnt4 (ligand, UniProt P22724 23-351, looked up)
chain: SNWLYLAKLSSVGSISEEETCEKLKGLIQRQVQMCKRNLEVMDSVRRGAQLAIEECQYQFRNRRWNCSTLDSLPVFGKVVTQGTREAAFVYAISSAGVAFAVTRACSSGELEKCGCDRTVHGVSPQGFQWSGCSDNIAYGVAFSQSFVDVRERSKGASSSRALMNLHNNEAGRKAILTHMRVECKCHGVSGSCEVKTCWRAVPPFRQVGHALKEKFDGATEVEPRRVGSSRALVPRNAQFKPHTDEDLVYLEPSPDFCEQDIRSGVLGTRGRTCNKTSKAIDGCELLCCGRGFHTAQVELAERCGCRFHWCCFVKCRQCQRLVEMHTCR
As to B1, the “MuSK tyrosine phosphorylation (pTyr blot of HA immunoprecipitates, +Wnt4/-Wnt4 ratio) in HEK 293T cells cotransfected with HA-MuSK with or without Wnt4-HA” value came to 2 fold.
